Results: the supplement of paper PMC9170038

Test system: MS2 coat protein
Assay: apparent KD of MS2 coat protein; designed switch direction (-1 OFF switch, 1 ON switch): -1; higher = weaker reporter binding
Method in brief: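 Designed RNA switches were transcribed on Illumina chips by stalled E. coli RNA polymerase and titrated with SNAP-549-labelled MS2 coat protein from 0.7 or 1.5 nM, doubling to 3 µM. Step length ran from 0.8–1.5 h at the lowest concentration to 10–20 min at the highest. The apparent KD is the median over clusters for each design, from curve-fitted normalised cluster fluorescence.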

[1] = Eterna round: R95, input ligand: microRNA oligo, concentration not stated
[2] = input ligand: microRNA oligo, concentration not stated

UCAUAUAACGAGGAUAUGCGGGCCGUUUUCCCAGCAGAAGGCGUUACAUGAGGAUCACCCAUGUACCCGGGUAA [EX6 A.29] (Eterna round: R97, puzzle: Exclusion 6)
apparent KD of MS2 coat protein (input ligand: FMN 200 uM): 18.1 nM
apparent KD of MS2 coat protein (input ligand: none): 515 nM

UCAUGUCCAGAGGAUAUGUAGAUCGAGAGAUCAACAGAAGGCUGGACAUGAGGAUCACCCAUGUGCGCCUUCAA [jl-ex3-4.29 ViennaUCT mod] (Eterna round: R97, puzzle: Exclusion 6)
apparent KD of MS2 coat protein (input ligand: FMN 200 uM): 70.6 nM
apparent KD of MS2 coat protein (input ligand: none): 188 nM

UCAUGUCCAGAGGAUAUGUAGCGGGAGACCGCAACAGAAGGCUGGACAUGAGGAUCACCCAUGUGCGCCUUCAA [jl-ex3-4.28 ViennaUCT mod] (Eterna round: R97, puzzle: Exclusion 6)
apparent KD of MS2 coat protein (input ligand: FMN 200 uM): 43 nM
apparent KD of MS2 coat protein (input ligand: none): 352 nM

UCAUGUCCAGAGGAUAUGUAGCGGGAGACCGCAACAGAAGGCUGGACAUGAGGAUCACCCAUGUGCGCCUUCGA [jl-ex3-4.27 ViennaUCT mod] (Eterna round: R97, puzzle: Exclusion 6)
apparent KD of MS2 coat protein (input ligand: FMN 200 uM): 35.9 nM
apparent KD of MS2 coat protein (input ligand: none): 113 nM

UCCCACCGAGGAUAUGACCAUCAGAACAUGAGGAUCACCCAUGUAUUUCUAUGUUCAGAGUCAGAAGGCGGUUUAU [Eternabot (L2) Solution 20] (Eterna round: R97, puzzle: Exclusion 5)
apparent KD of MS2 coat protein (input ligand: FMN 200 uM): 190 nM
apparent KD of MS2 coat protein (input ligand: none): 72.4 nM

UCCCGAUACUAGGAUAUGAGUUCACAGGAACGAUCAGAAGGAGUUACAUGAGGAUCACCCAUGUGGGUGUAUUG [Eternabot (L1) Solution 37] (Eterna round: R97, puzzle: Exclusion 6)
apparent KD of MS2 coat protein (input ligand: FMN 200 uM): 120 nM
apparent KD of MS2 coat protein (input ligand: none): 237 nM

UCCCGUCUAUGGAGAUUUUACAUGAGGAUCACCCAUGUUGGGACCGCUCUUUGCUUGUCUUCUCCUACUUCGUGUGU [mod-Gracier #4] (Eterna round: R97, puzzle: Sensor, turn-off variant 1)
apparent KD of MS2 coat protein (input ligand: FMN 200 uM): 82.7 nM
apparent KD of MS2 coat protein (input ligand: none): 87.2 nM

UCCUAACAUGAGGAUCACCCAUGUCAGGAUAUGAUACUAUGUACUUCGGUACAUAGUAUCAGAAGGGACAUCCU [Ex1-3: 9] (puzzle: Exclusion 1)
apparent KD of MS2 coat protein [1]: 14.7 nM

UCCUGUUAUGUUAGGAUAUCUGGUUCGACUCGAACAGAGAAGGAACAUGAGGAUCACCCAUGUCCCGGUGAUAA [Eternabot (L2) Solution 19] (Eterna round: R97, puzzle: Brourd's mod of Exclusion 4)
apparent KD of MS2 coat protein (input ligand: FMN 200 uM): 85.6 nM
apparent KD of MS2 coat protein (input ligand: none): 33.1 nM

UCCUUACUUGAGGAUCACCCAAGUCAGGAUAUACACCAGAAUAAAUCCCAGCCCUGGCGUAGAAGGGACGGGUG [Esesle] (Eterna round: R97, puzzle: Exclusion 1)
apparent KD of MS2 coat protein (input ligand: FMN 200 uM): 23 nM
apparent KD of MS2 coat protein (input ligand: none): 25.1 nM

UCGACGUCGUCAGGAUAUAGUCUUAAUGUCAUGCUUUUGUUCGUACAUGAGGAUCACCCAUGUGGCUAGAAGGGACUAAAGAUU [JR_ExcNG2_Sub015] (Eterna round: R96, puzzle: Exclusion NG 2)
apparent KD of MS2 coat protein (input ligand: FMN 200 uM): 12.3 nM
apparent KD of MS2 coat protein [2]: 10.1 nM
apparent KD of MS2 coat protein (input ligand: none): 15.8 nM

UCGCCGCCCUUGGGCGGCGACAUGAGGAUCACCCAUGUCAAGCUUUUUGCUCGUUUUAUAGCCGGCCUUGGCCGGCA [Olib_3] (Eterna round: R97, puzzle: Sensor, turn-off variant 1)
apparent KD of MS2 coat protein (input ligand: FMN 200 uM): 27.9 nM
apparent KD of MS2 coat protein (input ligand: none): 29.4 nM

UCGCUGCGAGGAUAUACGUUUGCGCGUUUUCGUUUGCGCGUACAUGAGGAUCACCCAUGUAGAAGGCGCGCGGC [Apr-15 SS2-11] (puzzle: Exclusion 2)
apparent KD of MS2 coat protein [1]: 12.2 nM

UCGCUGCGAGGAUAUACGUUUGCGCGUUUUCGUUUGCGCGUACAUGAGGAUCACCCAUGUAGAAGGCGCGCUGC [Apr-15 SS2-10] (puzzle: Exclusion 2)
apparent KD of MS2 coat protein [1]: 13.3 nM

UCUCGAAGGCAAGGAUAUCCUACAUUGUUCUGGCCCGGGCAUGCUACAUGAGGAUCACCCAUGUGGGAGAAGGUGCGCCACGGC [Design 29] (Eterna round: R96, puzzle: Exclusion NG 2)
apparent KD of MS2 coat protein (input ligand: FMN 200 uM): 31.6 nM
apparent KD of MS2 coat protein [2]: 32.9 nM
apparent KD of MS2 coat protein (input ligand: none): 43.1 nM

UCUCGCGGGCAAGGAUAUCCUACGUUGUUCUGGCCCGUGCAUGUUACAUGAGGAUCACCCAUGUGGGAGAAGGUGCGCCAGGGC [Design 37] (Eterna round: R96, puzzle: Exclusion NG 2)
apparent KD of MS2 coat protein (input ligand: FMN 200 uM): 51.3 nM
apparent KD of MS2 coat protein [2]: 36.7 nM
apparent KD of MS2 coat protein (input ligand: none): 59.8 nM

UCUCGGACAGGAUAUCUGUCAUCUGACAUGAGGAUCACCCAUGUCCUCGCCGCCAACCCAAGAGAAGGGUCCCACA [Eternabot (L1) Solution 76] (Eterna round: R97, puzzle: Exclusion 5)
apparent KD of MS2 coat protein (input ligand: FMN 200 uM): 99.2 nM
apparent KD of MS2 coat protein (input ligand: none): 120 nM

UCUCGUUGGCAAGGAUAUCCUACAUUGUUCUGGCCCGGGCAUGCUACAUGAGGAUCACCCAUGUGGGAGAAGGUGCGCCACUGC [Design 25] (Eterna round: R96, puzzle: Exclusion NG 2)
apparent KD of MS2 coat protein (input ligand: FMN 200 uM): 95.5 nM
apparent KD of MS2 coat protein [2]: 67.6 nM
apparent KD of MS2 coat protein (input ligand: none): 108 nM

UCUGGUCGAGGAUAUACAUGAGGAUCACCCAUGUAGAUCAACCAGCGAUAGCUGGAAUGUAGAAGGCGACCAGA [E3/5-A3] (Eterna round: R97, puzzle: Exclusion 3)
apparent KD of MS2 coat protein (input ligand: FMN 200 uM): 381 nM
apparent KD of MS2 coat protein (input ligand: none): 30.4 nM

UCUUAUUGAGGAUAUACAGAUUAUUACAUGAGGAUCACCCAUGUUCUUCAAUGUAUAUAUGUAGAAGGCAGAGGAA [Mat - Exclusion 5 - JL Mod - D11] (Eterna round: R97, puzzle: Exclusion 5)
apparent KD of MS2 coat protein (input ligand: FMN 200 uM): 112 nM
apparent KD of MS2 coat protein (input ligand: none): 67.4 nM

UCUUAUUGAGGAUAUACAGAUUAUUACAUGAGGAUCACCCAUGUUCUUCAAUGUAUAUAUGUAGAAGGCAGAGGAU [Mat - Exclusion 5 - JL Mod - D12] (Eterna round: R97, puzzle: Exclusion 5)
apparent KD of MS2 coat protein (input ligand: FMN 200 uM): 217 nM
apparent KD of MS2 coat protein (input ligand: none): 68.6 nM

UCUUUCAUUGUGAGGAUAUGCCCAAAUAAAAGCGGGCAGAAGGCACAUGAGGAUCACCCAUGUCCUGCGGUUUU [salish99_bmx4_r4_149] (Eterna round: R97, puzzle: Brourd's mod of Exclusion 4)
apparent KD of MS2 coat protein (input ligand: FMN 200 uM): 177 nM
apparent KD of MS2 coat protein (input ligand: none): 40.7 nM

UGAAUGUGAGGAUAUGGUGAGUAGUGCCAGAGCGCUGCUCACCAGAAGGCACAUGAGGAUCACCCAUGUACUUG [Mat - Exclusion 4 - Mod of JL - D18] (puzzle: Exclusion 4)
apparent KD of MS2 coat protein [1]: 47.8 nM

UGAGCUACAGGAUAUACAAGGCGACCGUGAGGUCGAAGGUUACAUGAGGAUCACCCAUGUAGAAGGGUAGUUCU [Mat - Exclusion 2 - JL Mod - D15] (Eterna round: R97, puzzle: Exclusion 2)
apparent KD of MS2 coat protein (input ligand: FMN 200 uM): 130 nM
apparent KD of MS2 coat protein (input ligand: none): 126 nM

UGAGGACAUGAGGAUCACCCAUGUAAGGAUAUGCGGAGAGUUUGGAGAGGUUGAGGAGGCAGAAGGUACAGGAU [JR_Exclu1_Sub047] (puzzle: Exclusion 1)
apparent KD of MS2 coat protein [1]: 49.2 nM

UGAUCACAUGAGGAUCACCCAUGUCAGGAUAUCGUCACUGGAGCCUCGGCUCCAGUGACGAGAAGGGACAUAAU [E1/3-A2] (Eterna round: R97, puzzle: Exclusion 1)
apparent KD of MS2 coat protein (input ligand: FMN 200 uM): 137 nM
apparent KD of MS2 coat protein (input ligand: none): 253 nM

UGAUCAGACCGAGGAUAUAUAUGUAGGACCCACGUGAGUGGGUCCAGUACAUGAGGAUCACCCAUGUAGAAGGCGGUCUGAUCU [JL ENG2 1.87] (Eterna round: R96, puzzle: Exclusion NG 2)
apparent KD of MS2 coat protein (input ligand: FMN 200 uM): 19.2 nM
apparent KD of MS2 coat protein [2]: 10.7 nM
apparent KD of MS2 coat protein (input ligand: none): 15 nM

UGAUCUAGCGGAGGAUAUACAUGAGGAUCACCCAUGUAGAUAAGUGUACCGUAGUGCACUAUUGUGUAGAAGGCCGCUAGAUCU [JL ENG2 3.64] (Eterna round: R96, puzzle: Exclusion NG 2)
apparent KD of MS2 coat protein (input ligand: FMN 200 uM): 30.5 nM
apparent KD of MS2 coat protein [2]: 9.35 nM
apparent KD of MS2 coat protein (input ligand: none): 11.9 nM

UGAUUGAUUAACAGAUUAUACAUGAGGAUCACCCAUGUAGGUCCUACGUGCCCUUUAUGCAGCUCGUCUUAUUCCCA [Sensor-V1 #70] (Eterna round: R97, puzzle: Sensor, turn-off variant 1)
apparent KD of MS2 coat protein (input ligand: FMN 200 uM): 53.6 nM
apparent KD of MS2 coat protein (input ligand: none): 50 nM

UGAUUGUUUACCAGGUUAUACAUGAGGAUCACCCAUGUAGAUCCUACGUGCGCGUUGUACCGCUCGUCUUAUUCCCA [Sensor-V1 #78] (Eterna round: R97, puzzle: Sensor, turn-off variant 1)
apparent KD of MS2 coat protein (input ligand: FMN 200 uM): 18.3 nM
apparent KD of MS2 coat protein (input ligand: none): 18.9 nM

UGCAGACGAGGAUAUAAAUUUAAAUACAUGAGGAUCACCCAUGUAUAAAUGUAUUUAAAUUUAGAAGGCGUCUGCU [E5/12-A4] (Eterna round: R97, puzzle: Exclusion 5)
apparent KD of MS2 coat protein (input ligand: FMN 200 uM): 500 nM
apparent KD of MS2 coat protein (input ligand: none): 606 nM

UGCAUGGUAGGAUAUACGGAGCAUUAGGGUUUGUUAUGUGGACAUGAGGAUCACCCAUGUAGAAGGGCCGUGCU [JL-ex2-2.16 mat747 mod] (puzzle: Exclusion 2)
apparent KD of MS2 coat protein [1]: 32.6 nM

UGCAUGGUAGGAUAUACGGAGCAUUAGGGUUUGUUGUGUGGACAUGAGGAUCACCCAUGUAGAAGGGCCGUGCU [JL-ex2-2.17 mat747 mod] (puzzle: Exclusion 2)
apparent KD of MS2 coat protein [1]: 35.5 nM

UGCAUGUCAGGAUAUAUUAGUACACUAGUCAGUCUAGGUGCGUAGAAGGGACAUGAGGAUCACCCAUGUGACAU [Eternabot (L2) Solution 1] (Eterna round: R97, puzzle: Exclusion 4)
apparent KD of MS2 coat protein (input ligand: FMN 200 uM): 143 nM
apparent KD of MS2 coat protein (input ligand: none): 64.9 nM

UGCCGAUGAGGAUAUACAUUGAAUAAGAUUCAUGUAAAACUACAUGAGGAUCACCCAUGUAGAAGGCAUUGGCU [Mat - Exclusion 2 - JL Mod - D69] (Eterna round: R97, puzzle: Exclusion 2)
apparent KD of MS2 coat protein (input ligand: FMN 200 uM): 25.7 nM
apparent KD of MS2 coat protein (input ligand: none): 15.6 nM
